Reference: paper doi:10.1101/2024.03.31.587457, “The TTLL10 polyglycylase is stimulated by tubulin glutamylation and inhibited by polyglycylation” (bioRxiv, 2025)
Values belong to the molecule of their own block, whether it stands above or below them.

Legend:
TTLL10 = molecular target: T1, TTLL10 (Xenopus tropicalis, UniProt A0A8J0T4S7); assay: LC-MS and MS/MS of glycine added to tubulin tails; format: biochemical; conditions: labelled compound (13C glycine); co-substrate human microtubules monoglycylated by TTLL8; ATP-dependent; room temperature, 20 min
T1 construct: residues 105-570; N-terminal GST tag cut with 3C protease; Sf9 baculovirus; untagged for mass spectrometry (C-terminal SNAP fusion only for microscopy)
T1 sequence (A0A8J0T4S7 105-570): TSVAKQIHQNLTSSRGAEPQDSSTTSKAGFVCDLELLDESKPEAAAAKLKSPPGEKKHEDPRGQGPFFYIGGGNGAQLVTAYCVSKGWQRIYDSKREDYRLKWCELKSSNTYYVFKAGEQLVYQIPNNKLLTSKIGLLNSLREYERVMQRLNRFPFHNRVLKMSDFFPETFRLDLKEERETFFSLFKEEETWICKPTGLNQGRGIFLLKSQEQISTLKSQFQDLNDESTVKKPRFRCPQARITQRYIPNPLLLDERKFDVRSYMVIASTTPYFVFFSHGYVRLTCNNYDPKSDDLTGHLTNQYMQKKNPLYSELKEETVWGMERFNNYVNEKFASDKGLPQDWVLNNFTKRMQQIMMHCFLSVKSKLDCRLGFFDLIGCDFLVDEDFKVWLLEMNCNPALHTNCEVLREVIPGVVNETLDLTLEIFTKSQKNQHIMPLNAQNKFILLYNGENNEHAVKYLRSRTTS

TTLL8 = molecular target: T2, TTLL8 (Homo sapiens, UniProt A6PVC2); assay: LC-MS and MS/MS of glycine added to tubulin tails; format: biochemical; conditions: labelled compound (13C glycine); co-substrate unmodified human microtubules (taxol-stabilised); ATP-dependent; room temperature, 20 min
T2 construct: residues 39-585; N-terminal GST tag cut with 3C protease; Sf9 baculovirus
T2 sequence (A6PVC2 39-585): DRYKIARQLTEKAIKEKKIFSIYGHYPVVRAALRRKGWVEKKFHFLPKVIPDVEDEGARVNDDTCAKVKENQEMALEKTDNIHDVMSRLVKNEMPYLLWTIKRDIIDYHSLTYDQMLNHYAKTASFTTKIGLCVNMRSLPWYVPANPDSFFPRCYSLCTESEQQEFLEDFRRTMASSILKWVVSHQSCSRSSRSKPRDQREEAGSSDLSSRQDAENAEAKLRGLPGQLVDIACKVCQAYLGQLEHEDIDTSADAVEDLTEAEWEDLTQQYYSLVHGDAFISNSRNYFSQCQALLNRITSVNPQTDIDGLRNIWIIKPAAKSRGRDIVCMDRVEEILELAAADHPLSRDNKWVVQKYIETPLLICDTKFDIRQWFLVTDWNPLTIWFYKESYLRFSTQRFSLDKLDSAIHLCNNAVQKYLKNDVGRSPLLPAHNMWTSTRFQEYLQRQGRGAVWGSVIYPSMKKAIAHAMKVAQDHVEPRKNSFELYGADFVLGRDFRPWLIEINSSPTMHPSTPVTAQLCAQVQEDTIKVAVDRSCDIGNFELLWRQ

[1] = molecular target: monoglycylated microtubules (<nG>α ~ 0.8, <nG>β ~ 1.2) (human) (UniProt P68363); assay: TIRF microscopy microtubule binding assay; 500 nM TTLL10-SNAP(647) perfused over biotinylated taxol-stabilised microtubules immobilised on neutravidin; binding buffer 60mM KCl, 10mM NaCl, 40mM PIPES pH 6.8, 2mM Tris pH 8.0, 1.5mM MgCl2, 1mM ATP; peak line-scan intensities normalised to microtubule length and to unmodified microtubules in the same chamber
[2] = molecular target: monoglycylated/polyglutamylated microtubules (<nG>α ~ 0.1, <nG>β ~ 0.8; <nE>α ~ 18, <nE>β ~ 4) (human) (UniProt P68363); assay: as above
[3] = molecular target: polyglycylated/polyglutamylated microtubules (<nG>α ~ 0.4, <nG>β ~ 1.9, glutamylated by TTLL6) (human) (UniProt P68363); assay: as above
[4] = molecular target: monoglycylated microtubules (<nG>α ~ 1.1, <nG>β ~ 2.5) (human) (UniProt P68363); assay: as above
[5] = molecular target: monoglycylated microtubules (α + 1.7G, β + 2.0G) (human) (UniProt P68363); assay: TIRF microscopy microtubule binding assay; binding curve of TTLL10-SNAP(Alexa647) on microtubules immobilised in neutravidin-coated flow chambers; apparent Kd

Molecule: NCC(=O)O [glycine]
LC-MS and MS/MS of glycine added to tubulin tails (TTLL10): TTLL10 can add glycines to both α- and β-tubulin as long as they were previously monoglycylated
LC-MS and MS/MS of glycine added to tubulin tails (TTLL8): TTLL8 adds glycines to unmodified microtubules on both α- and β-tubulin

fold recruitment against unmodified microtubules [1]: > 6 fold
fold recruitment against the same monoglycylated microtubules without glutamylation [2]: 1.8 fold
fold binding against the same polyglycylated microtubules without glutamylation [3]: 3.2 fold
percent increase in recruitment on addition of more monoglycines (against microtubules with <nG>α ~ 0.8, <nG>β ~ 1.2) [4]: 17%
Kd [5]: 600 nM
B1: Alexa647-labeled TTLL10-SNAP (enzyme)
chain: T1 sequence (A0A8J0T4S7 105-570)
modifications: SNAP-Surface Alexa Fluor 647 dye conjugated to the SNAP tag
